{"source": "paper PMC3032713", "target": "RBSDV P9-1 as used in vitro (data not shown) (Rice black-streaked dwarf virus)", "test": "not stated; P9-1 dimers in vitro; data not shown"}
{"substance": "RBSDV P9-1 as used in vitro (data not shown) (natural protein)", "values": [{"measurement": "stoichiometry N", "value": 2}]}
